Target: T1, SloR (purified native) (UniProt I6L923 1-217)
T1 sequence: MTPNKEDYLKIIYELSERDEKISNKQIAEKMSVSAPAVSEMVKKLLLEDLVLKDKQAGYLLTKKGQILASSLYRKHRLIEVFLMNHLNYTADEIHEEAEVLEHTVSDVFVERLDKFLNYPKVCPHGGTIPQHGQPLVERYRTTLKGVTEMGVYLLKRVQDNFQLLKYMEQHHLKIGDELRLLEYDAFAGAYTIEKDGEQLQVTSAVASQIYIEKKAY
Test: BLI

B1: mntH.22.SRE3.WT (dsDNA)
DNA 1: CAGTAATTCTTACAAACTCTTT
DNA 2: AAAGAGTTTGTAAGAATTACTG
binding result: no binding

— article PMC11566000
